Drawing on article PMC3154423, this text covers Kd for one molecule.

Targets include Jun-Jun bZIP K268A (human, UniProt P05412 252-315, K268A); Jun-Jun bZIP WT (human, UniProt P05412 252-315); Jun-Jun bZIP R261A (human, UniProt P05412 252-315, R261A).
Common to all, as to experiment: ITC
Data set [1] has as its target Jun bZIP R261A;Fos bZIP R157A (human;human, UniProt P05412;P01100 252-315;137-200, R261A|R157A).
In data set [2] the target is Jun bZIP R261A;Fos bZIP R146A (human;human, UniProt P05412;P01100 252-315;137-200, R261A|R146A).
Data set [3] addresses Jun bZIP R270A;Fos bZIP R144A (human;human, UniProt P05412;P01100 252-315;137-200, R270A|R144A).
The target of data set [4] is Jun bZIP R259A;Fos bZIP K153A (human;human, UniProt P05412;P01100 252-315;137-200, R259A|K153A).
Data set [5] has as its target Jun bZIP K273A;Fos bZIP R143A (human;human, UniProt P05412;P01100 252-315;137-200, K273A|R143A).
For data set [6], the target named is Jun bZIP R270A;Fos bZIP R158A (human;human, UniProt P05412;P01100 252-315;137-200, R270A|R158A).
Data set [7] addresses Jun bZIP R261A;Fos bZIP R158A (human;human, UniProt P05412;P01100 252-315;137-200, R261A|R158A).
Data set [8] deals with Jun bZIP R259A;Fos bZIP K148A (human;human, UniProt P05412;P01100 252-315;137-200, R259A|K148A).
In data set [9] the target is Jun bZIP R270A;Fos bZIP R146A (human;human, UniProt P05412;P01100 252-315;137-200, R270A|R146A).
Data set [10] concerns the target Jun bZIP R261A;Fos bZIP R143A (human;human, UniProt P05412;P01100 252-315;137-200, R261A|R143A).
For data set [11], the target named is Jun bZIP R270A;Fos bZIP R143A (human;human, UniProt P05412;P01100 252-315;137-200, R270A|R143A).
Data set [12] deals with Jun bZIP K273A;Fos bZIP R157A (human;human, UniProt P05412;P01100 252-315;137-200, K273A|R157A).
The target in data set [13] is Jun bZIP R259A;Fos bZIP R144A (human;human, UniProt P05412;P01100 252-315;137-200, R259A|R144A).
The target of data set [14] is Jun bZIP R261A;Fos bZIP K148A (human;human, UniProt P05412;P01100 252-315;137-200, R261A|K148A).
Sequence of Jun bZIP R261A;Fos bZIP K148A (P05412 252-315 R261A, chain 1 of 2): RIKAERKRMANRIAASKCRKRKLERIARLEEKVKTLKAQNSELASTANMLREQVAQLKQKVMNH
Sequence of Jun bZIP R261A;Fos bZIP K148A (P01100 137-200 K148A, chain 2 of 2): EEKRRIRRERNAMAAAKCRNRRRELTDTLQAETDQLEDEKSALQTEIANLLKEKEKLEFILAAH

Sequence of Jun bZIP R270A;Fos bZIP R143A (P05412 252-315 R270A, chain 1 of 2): as the sequence (P05412 252-315 R261A, chain 1 of 2) above, with A10R, R19A counted along it
Sequence of Jun bZIP R270A;Fos bZIP R143A (P01100 137-200 R143A, chain 2 of 2): as the sequence (P01100 137-200 K148A, chain 2 of 2) above, with R7A, A12K counted along it
Sequence of Jun bZIP R270A;Fos bZIP R146A (P05412 252-315 R270A, chain 1 of 2): as the sequence (P05412 252-315 R261A, chain 1 of 2) above, with A10R, R19A counted along it
Sequence of Jun bZIP R270A;Fos bZIP R146A (P01100 137-200 R146A, chain 2 of 2): as the sequence (P01100 137-200 K148A, chain 2 of 2) above, with R10A, A12K counted along it
Sequence of Jun bZIP R270A;Fos bZIP R144A (P05412 252-315 R270A, chain 1 of 2): as the sequence (P05412 252-315 R261A, chain 1 of 2) above, with A10R, R19A counted along it
Sequence of Jun bZIP R270A;Fos bZIP R144A (P01100 137-200 R144A, chain 2 of 2): as the sequence (P01100 137-200 K148A, chain 2 of 2) above, with R8A, A12K counted along it
Sequence of Jun bZIP R270A;Fos bZIP R158A (P05412 252-315 R270A, chain 1 of 2): as the sequence (P05412 252-315 R261A, chain 1 of 2) above, with A10R, R19A counted along it
Sequence of Jun bZIP R270A;Fos bZIP R158A (P01100 137-200 R158A, chain 2 of 2): as the sequence (P01100 137-200 K148A, chain 2 of 2) above, with A12K, R22A counted along it
Sequence of Jun bZIP K273A;Fos bZIP R157A (P05412 252-315 K273A, chain 1 of 2): as the sequence (P05412 252-315 R261A, chain 1 of 2) above, with A10R, K22A counted along it
Sequence of Jun bZIP K273A;Fos bZIP R157A (P01100 137-200 R157A, chain 2 of 2): as the sequence (P01100 137-200 K148A, chain 2 of 2) above, with A12K, R21A counted along it
Sequence of Jun bZIP K273A;Fos bZIP R143A (P05412 252-315 K273A, chain 1 of 2): as the sequence (P05412 252-315 R261A, chain 1 of 2) above, with A10R, K22A counted along it
Sequence of Jun bZIP K273A;Fos bZIP R143A (P01100 137-200 R143A, chain 2 of 2): as the sequence (P01100 137-200 K148A, chain 2 of 2) above, with R7A, A12K counted along it
Sequence of Jun bZIP R261A;Fos bZIP R146A (P05412 252-315 R261A, chain 1 of 2): as the sequence (P05412 252-315 R261A, chain 1 of 2) above
Sequence of Jun bZIP R261A;Fos bZIP R146A (P01100 137-200 R146A, chain 2 of 2): as the sequence (P01100 137-200 K148A, chain 2 of 2) above, with R10A, A12K counted along it
Sequence of Jun-Jun bZIP R261A (P05412 252-315 R261A): as the sequence (P05412 252-315 R261A, chain 1 of 2) above
Sequence of Jun bZIP R261A;Fos bZIP R157A (P05412 252-315 R261A, chain 1 of 2): as above
Sequence of Jun bZIP R261A;Fos bZIP R157A (P01100 137-200 R157A, chain 2 of 2): as the sequence (P01100 137-200 K148A, chain 2 of 2) above, with A12K, R21A counted along it
Sequence of Jun bZIP R261A;Fos bZIP R158A (P05412 252-315 R261A, chain 1 of 2): as the sequence (P05412 252-315 R261A, chain 1 of 2) above
Sequence of Jun bZIP R261A;Fos bZIP R158A (P01100 137-200 R158A, chain 2 of 2): as the sequence (P01100 137-200 K148A, chain 2 of 2) above, with A12K, R22A counted along it
Sequence of Jun bZIP R261A;Fos bZIP R143A (P05412 252-315 R261A, chain 1 of 2): as the sequence (P05412 252-315 R261A, chain 1 of 2) above
Sequence of Jun bZIP R261A;Fos bZIP R143A (P01100 137-200 R143A, chain 2 of 2): as the sequence (P01100 137-200 K148A, chain 2 of 2) above, with R7A, A12K counted along it
Sequence of Jun bZIP R259A;Fos bZIP R144A (P05412 252-315 R259A, chain 1 of 2): as the sequence (P05412 252-315 R261A, chain 1 of 2) above, with R8A, A10R counted along it
Sequence of Jun bZIP R259A;Fos bZIP R144A (P01100 137-200 R144A, chain 2 of 2): as the sequence (P01100 137-200 K148A, chain 2 of 2) above, with R8A, A12K counted along it
Sequence of Jun bZIP R259A;Fos bZIP K153A (P05412 252-315 R259A, chain 1 of 2): as the sequence (P05412 252-315 R261A, chain 1 of 2) above, with R8A, A10R counted along it
Sequence of Jun bZIP R259A;Fos bZIP K153A (P01100 137-200 K153A, chain 2 of 2): as the sequence (P01100 137-200 K148A, chain 2 of 2) above, with A12K, K17A counted along it
Sequence of Jun bZIP R259A;Fos bZIP K148A (P05412 252-315 R259A, chain 1 of 2): as the sequence (P05412 252-315 R261A, chain 1 of 2) above, with R8A, A10R counted along it
Sequence of Jun bZIP R259A;Fos bZIP K148A (P01100 137-200 K148A, chain 2 of 2): as the sequence (P01100 137-200 K148A, chain 2 of 2) above
Sequence of Jun-Jun bZIP K268A (P05412 252-315 K268A): as the sequence (P05412 252-315 R261A, chain 1 of 2) above, with A10R, K17A counted along it
Sequence of Jun-Jun bZIP WT (P05412 252-315): as the sequence (P05412 252-315 R261A, chain 1 of 2) above, with A10R counted along it

B1: TRE duplex 15-mer (dsDNA)
DNA 1: CGCGTGACTCACCCC
DNA 2: GGGGTGAGTCACGCG
As usually defined, the Kd is the free concentration of one partner at which half of the binding sites on the other are occupied at equilibrium, for simple one-to-one binding. Read a low Kd as a tighter complex. B1: the Kd in [1] came to 890 ± 30 nM; in data set [2], 1030 ± 20 nM; in data set [3], 6700 ± 410 nM; in data set [4], 1720 ± 150 nM; in data set [5], 1220 ± 150 nM; in [6], 1540 ± 50 nM. Besides, the Kd in data set [7] is 760 ± 20 nM; in [8], 2260 ± 180 nM; with Jun-Jun bZIP K268A it was 400 ± 20 nM; in data set [9] it was 1450 ± 130 nM; in [10], 1030 ± 50 nM; in [11], 1600 ± 50 nM. Further, the Kd came to 1300 ± 80 nM in data set [12]; 190 ± 20 nM with Jun-Jun bZIP WT; 15800 ± 620 nM in data set [13]; 950 ± 60 nM in data set [14]; 380 ± 20 nM with Jun-Jun bZIP R261A.
